Reference: the supplement of paper PMC9170038

Tested on: MS2 coat protein
Experiment: apparent KD of MS2 coat protein; designed switch direction (-1 OFF switch, 1 ON switch): -1; higher = weaker reporter binding
In short: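 For each design, the apparent KD is the median over clusters of curves fitted to normalised cluster fluorescence. Clusters held RNA switches with common flanks, transcribed on Illumina chips by stalled E. coli RNA polymerase. These were titrated with SNAP-549-labelled MS2 coat protein, doubling from 0.7 or 1.5 nM to 3 µM, without input, with 200 uM small-molecule ligand, or with an oligonucleotide input.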

[1] = Eterna round: R95, input ligand: microRNA oligo, concentration not stated
[2] = input ligand: microRNA oligo, concentration not stated
[3] = Eterna round: R95, input ligand: FMN 200 uM
[4] = Eterna round: R95, input ligand: none

Sequence | apparent KD of MS2 coat protein [1] | apparent KD of MS2 coat protein (input ligand: FMN 200 uM) | apparent KD of MS2 coat protein (input ligand: none) | apparent KD of MS2 coat protein [2] | apparent KD of MS2 coat protein [3] | apparent KD of MS2 coat protein [4]
AAAAAGCGAGGAUAUGCAUAAGGACCCGGGAGGGAAAUCAAACAUGAGGAUCACCCAUGUAGAAGGCGCAAAAA [Exclss2-III] (puzzle: Exclusion 2) | 18.2 nM |  |  |  |  | 
ACUGGUCGAGGAUAUACAUGAGGAUCACCCAUGUGGUCACGUGACGAUAGUCACGAAUGUAGAAGGCGACCAGU [E3/3-A2] (Eterna round: R97, puzzle: Exclusion 3) |  | 15.7 nM | 123 nM |  |  | 
ACAUGAGGAUCACCCAUGUCAGGCGGGUCCACUCCGGCUGUUGAGGAUAUAGCCCGGUAUCCGCGCUAGAAGGUGAGGGCCGGC [Aenatbe mod 25] (Eterna round: R96, puzzle: Exclusion NG 3) |  | 23.1 nM | 24.1 nM | 18.4 nM |  | 
UUUAAUUGUCACAUGGGUGACAUGAGGAUCACCCAUGUCACAAGCUUUUUGCUCGUCUUAUAAUUAACCCAUGUGAC [Stov1/12-A1] (Eterna round: R97, puzzle: Sensor, turn-off variant 1) |  | 13.4 nM | 13.7 nM |  |  | 
GUGGUACAUGAGGAUCACCCAUGUAAGGAUAUAGUCGUCUGGUGGUCGCGGGUGGUGGCUAGAAGGUGCGUGCG [-19.6, -16.8 kcal, A 19%] (Eterna round: R97, puzzle: Exclusion 1) |  | 93.9 nM | 125 nM |  |  | 
UAUUAGUGAGGAUAUGGUAUAGAUAAGAUGAUGAAAGAACUCCAGAAGGCACAUGAGGAUCACCCAUGUAGUAG [JL-ex4-2.08 Jieux mod] (puzzle: Exclusion 4) | 23.7 nM |  |  |  | 20.4 nM | 20.9 nM
GAAGAACAUGAGGAUCACCCAUGUGAGGAUAUGAAAAAGAAAAGAAAAGAAAGAAGAAUCAGAAGGCACAAAGG [Mat - Mod of Hog D2] (puzzle: Exclusion 1) | 23.1 nM |  |  |  | 50.8 nM | 38.3 nM
GUGUCACAUGAGGAUCACCCAUGUGAGGAUAUCAUGCUUCGUAGUAAACUACGAAGUGUGAGAAGGCACAUGAC [Omei Ex1 E1] (Eterna round: R97, puzzle: Exclusion 1) |  | 71 nM | 47.8 nM |  |  | 
AGUCGGCGAGGAUAUACAUGAGGAUCACCCAUGUGAGAUAGUGCACGCGUACGUGUACGUAGAAGGCGCUGACA [Mat - Exclusion 3 - Mod of JL D94] (puzzle: Exclusion 3) | 11.1 nM |  |  |  |  | 
AAAAAACAAGGAUAUACAAAAAAAAAAUGUGAUAAAAAACCACAUGAGGAUCACCCAUGUAGAAGGUGUAAAAA [JR_Exclusion2_Sub003] (puzzle: Exclusion 2) | 62.8 nM |  |  |  | 55.6 nM | 65 nM
AAUAUACAUGUAGGAUAUCUGCACGAUUAGUGCAGAGAAGGACAUGAGGAUCACCCAUGUAAUUAAGAUCAAUUAUUAAAUAUU [ENG1/3-B1] (Eterna round: R96, puzzle: Exclusion NG 1) |  | 327 nM | 46.6 nM | 46.9 nM |  | 
AGGUCAGAAGGAUAUACAUGAGGAUCACCCAUGUGGGAUACAACGAGCCGUUGUUCAGGUAGAAGGUCUAAAAU [Eternabot (Original) Solution 33] (Eterna round: R97, puzzle: Exclusion 3) |  | 86 nM | 77.3 nM |  |  | 
ACUUGCUUUUUGCUCGUCUUAUUUUUGUUGACGUUCUAUACAUGAGGAUCACCCAUGUUUUGUUCCUUGUGCUGGUA [JR_SV3TOV2_Sub073] (puzzle: Sensor v3, turn-off variant 2) | 183 nM |  |  |  | 169 nM | 166 nM
ACAUGAGGAUCACCCAUGUCUGGCUGGUCUGUUCCGGCUGUUGAGGAUAUAGUCCGGUGUUCGCGCUAGAAGGUGAGGGCUGGA [Aenatbe mod 43] (Eterna round: R96, puzzle: Exclusion NG 3) |  | 54.5 nM | 57 nM | 32.9 nM |  | 
